This test has as its target T1, full-length human SRC, purified (human, UniProt P12931 1-536).
T1 construct: also called full-length SRC; not shown: GST, N-terminal, cleaved
Description: pull-down; His6-tagged PTP4A1 on Ni-NTA agarose beads (untreated, or treated with 0.5 mM H2O2 or 20 mM DTT for 1 hour); 0.5 μg SRC or 17.2 nmol GST-tagged SH3SH2 in 1 mL 60 mM HEPES pH 7.4, 5 mM MgCl2, 5 mM MnCl2, 1% BSA; 4°C, 2 hours; Western blotting. Conditions: both partners purified.

B1: His6-tagged oxidized PTP4A1 (residues 1-160), bound to Ni-NTA agarose (domain or fragment, human, UniProt Q93096 1-160, looked up)
chain: MARMNRPAPVEVTYKNMRFLITHNPTNATLNKFIEELKKYGVTTIVRVCEATYDTTLVEKEGIHVLDWPFDDGAPPSNQIVDDWLSLVKIKFREEPGCCIAVHCVAGLGRAPVLVALALIEGGMKYEDAVQFIRQKRRGAFNSKQLLYLEKYRPKMRLRF
modifications: oxidized: disulfide bond between Cys104 and Cys49
notes: also called oxo-PTP4A1; source: E. coli BL21 (DE3), purified (Ni-NTA, cation exchange); beads incubated with 0.5 mM H2O2 for 1 hour; not shown: His6, N-terminal, kept
Take B1: the binding result is “binds”.

B2: His6-tagged PTP4A1 (residues 1-160), untreated, bound to Ni-NTA agarose (domain or fragment, human, UniProt Q93096 1-160, looked up)
chain: B1 chain
notes: Not treated with H2O2 or DTT; also called protein tyrosine phosphatase 4A type 1; untreated beads containing both oxidized and reduced PTP4A1; source: E. coli BL21 (DE3), purified (Ni-NTA, cation exchange); not shown: His6, N-terminal, kept
For the molecule B2, the binding result was “binds”.

The record behind these values is paper PMC9089796, “Oxidative stress promotes fibrosis in systemic sclerosis through stabilization of a kinase-phosphatase complex” (JCI Insight, 2022).
